Values joined by “and” are separate entries in the source; they are usually repeats but may differ in a detail not shown here. Equal values may be shown once.

The series concerns the molecule itself. In words: SEC. (SEC sorts molecules by how far they enter the pores of the column.)

B1: HEV P^+ (modified protruding (P) protein of hepatitis E virus with C-terminal cysteine-containing peptide) (domain or fragment)
chain: PTPSPAPSRPFSVLRANDVLWLSLTAAEYDQTTYGSSTNPMYVSDTVTLVNVATGAQAVARSLDWSKVTLDGRPLTTIQQYSKTFYVLPLRGKLSFWEAGTTKAGYPYNYNTTASDQILIENAAGHRVAISTYTTSLGAGPTSISAVGVLAPHSALAVLEDTIDYPCDCRGDCFC
As for B1, the “stoichiometry N” value is 2 and 4.

As usually defined, the stoichiometry N is a count of units in the complex or per binding partner.

Values taken from publication PMC4137571 (Biomaterials, 2014).
